# Experimental data reported in paper doi:10.1101/2020.05.26.111013.
# Molecular target: PelX^C232S (Pseudomonas protegens Pf-5)
# Test: SEC
substance,measurement,value
PelX^C232S (enzyme),stoichiometry N,2
